B1: gpL (bacteriophage lambda, in the purified tail) (natural protein)
chain: MQDIRQETLNECTRAEQSASVVLWEIDLTEVGGERYFFCNEQNEKGEPVTWQGRQYQPYPIQGSGFELNGKGTSTRPTLTVSNLYGMVTGMAEDMQSLVGGTVVRRKVYARFLDAVNFVNGNSYADPEQEVISRWRIEQCSELSAVSASFVLSTPTETDGAVFPGRIMLANTCTWTYRGDECGYSGPAVADEYDQPTSDITKDKCSKCLSGCKFRNNVGNFGGFLSINKLSQ
notes: gpL of bacteriophage lambda; consists of HDI and 4Fe-4S domains; Three units in the tail tip; also called baseplate hub protein; source: E. coli BL21 (DE3) pLysS, as part of the purified lambda tail
B2: gpJ (bacteriophage lambda tip protein, in the purified tail) (natural protein)
chain: MGKGSSKGHTPREAKDNLKSTQLLSVIDAISEGPIEGPVDGLKSVLLNSTPVLDTEGNTNISGVTVVFRAGEQEQTPPEGFESSGSETVLGTEVKYDTPITRTITSANIDRLRFTFGVQALVETTSKGDRNPSEVRLLVQIQRNGGWVTEKDITIKGKTTSQYLASVVMGNLPPRPFNIRMRRMTPDSTTDQLQNKTLWSSYTEIIDVKQCYPNTALVGVQVDSEQFGSQQVSRNYHLRGRILQVPSNYNPQTRQYSGIWDGTFKPAYSNNMAWCLWDMLTHPRYGMGKRLGAADVDKWALYVIGQYCDQSVPDGFGGTEPRITCNAYLTTQRKAWDVLSDFCSAMRCMPVWNGQTLTFVQDRPSDKTWTYNRSNVVMPDDGAPFRYSFSALKDRHNAVEVNWIDPNNGWETATELVEDTQAIARYGRNVTKMDAFGCTSRGQAHRAGLWLIKTELLETQTVDFSVGAEGLRHVPGDVIEICDDDYAGISTGGRVLAVNSQTRTLTLDREITLPSSGTALISLVDGSGNPVSVEVQSVTDGVKVKVSRVPDGVAEYSVWELKLPTLRQRLFRCVSIRENDDGTYAITAVQHVPEKEAIVDNGAHFDGEQSGTVNGVTPPAVQHLTAEVTADSGEYQVLARWDTPKVVKGVSFLLRLTVTADDGSERLVSTARTTETTYRFTQLALGNYRLTVRAVNAWGQQGDPASVSFRIAAPAAPSRIELTPGYFQITATPHLAVYDPTVQFEFWFSEKQIADIRQVETSTRYLGTALYWIAASINIKPGHDYYFYIRSVNTVGKSAFVEAVGRASDDAEGYLDFFKGKITESHLGKELLEKVELTEDNASRLEEFSKEWKDASDKWNAMWAVKIEQTKDGKHYVAGIGLSMEDTEEGKLSQFLVAANRIAFIDPANGNETPMFVAQGNQIFMNDVFLKRLTAPTITSGGNPPAFSLTPDGKLTAKNADISGSVNANSGTLSNVTIAENCTINGTLRAEKIVGDIVKAASAAFPRQRESSVDWPSGTRTVTVTDDHPFDRQIVVLPLTFRGSKRTVSGRTTYSMCYLKVLMNGAVIYDGAANEAVQVFSRIVDMPAGRGNVILTFTLTSTRHSADIPPYTFASDVQVMVIKKQALGISVV
notes: Tip protein gpJ of bacteriophage lambda, 1132 residues: hub domains (HDII-ins1, HDII-ins2, HDII, HDIII, HDIV, OB), FNIII-1, FNIII-2, AHS, CSF, RBD; also called baseplate hub protein; central tail fiber protein; source: E. coli BL21 (DE3) pLysS, as part of the purified lambda tail

Experiments:
[1] = molecular target: the molecule itself; assay: cryo-EM structure; purified lambda tail mixed with ssLamB in MSP2N2 nanodisc, room temperature 50 min, nickel column and Superose 6 Increase; open state of the tail
[2] = molecular target: the molecule itself; assay: cryo-EM structure; gpJ713 alone, closed state; C3 symmetry; map at 2.76 A
E. coli LamB = molecular target: T1, E. coli LamB (E. coli, UniProt P02943 26-446); assay: BLI; His-tagged gpJ713 (2 ug/mL) captured on Ni-NTA sensors; five concentrations of Twin-Strep-tagged LamB in lysis buffer with 0.02% DDM; dissociation in the same buffer; details: both partners purified
T1 construct: LamB (maltoporin) of E. coli; own N-terminal signal peptide replaced by the OMPG signal peptide, Twin-Strep-tag after the signal peptide; also called ecLamB; E. coli's LamB; source: E. coli BL21 (DE3), isolated from the outer membrane in DDM, purified (Strep-Tactin XT, gel filtration); not shown: Twin-Strep-tag, N-terminal, kept

E. coli LamB A384S = molecular target: T2, E. coli LamB A384S (E. coli, UniProt P02943 26-446, A384S); assay: as above; details: both partners purified
T2 construct: LamB (maltoporin) of E. coli with the single-point mutation A384S; the text says A384S; also called ecLamB A384S; source: E. coli BL21 (DE3), isolated from the outer membrane in DDM, purified (Strep-Tactin XT, gel filtration); not shown: Twin-Strep-tag, N-terminal, kept

[3] = molecular target: B2; assay: cryo-EM structure; purified lambda tail mixed with ssLamB in MSP2N2 nanodisc, room temperature 50 min, nickel column and Superose 6 Increase; open state of the tail; details: both partners purified
[4] = molecular target: B1; assay: as above; details: both partners purified

| Binder | stoichiometry N [1] | binding result [3] | also measured |
| --- | --- | --- | --- |
| Shigella sonnei 3070 LamB (receptor, UniProt Q3YUU9 26-446, looked up, LamB (maltoporin) of Shigella sonnei 3070; own N-terminal signal peptide replaced by the OMPG signal peptide, Twin-Strep-tag after the signal peptide; differs from E. coli LamB in seven amino acids within the 381-390 region; Used in 0.02% DDM for BLI and for the gpJ713 complex, and in an MSP2N2 nanodisc (E. coli polar lipids) for the tail complex; also called ssLamB; LamB from Shigella sonnei …) VDFHGYARSGIGWTGSGGEQQCFQTTGAQSKYRLGNECETYAELKLGQEVWKEGDKSFYFDTNVAYSVAQQNDWEATDPAFREANVQGKNLIEWLPGSTIWAGKRFYQRHDVHMIDFYYWDISGPGAGLENIDVGFGKLSLAATRSSEAGGSSSFASNNIYDYTNETANDVFDVRLAQMEINPGGTLELGVDYGRANLRDNYRLVDGASKDGWLFTAEHTQSVLKGFNKFVVQYATDSMTSQGKGLSQGSGVAFDNEKFAYNINNNGHMLRILDHGAISMGDNWDMMYVGMYQDINWDNDNGTKWWTVGIRPMYKWTPIMSTVMEIGYDNVESQRTGDKNNQYKITLAQQWQAGDSIWSRPAIRVFATYAKWDEKWGYDYNGDSKVNPNYGKAVPADFNGGSFGRGDSDEWTFGAQMEIWW | 3 |  |  |
| gpJ713 (C-terminal truncation of bacteriophage lambda gpJ, starting from residue 713) (domain or fragment, UniProt P03749 713-1132, looked up, holds FNIIIs, AHS, CSF and RBD; Trimer (C3 symmetry in the closed state map); also called central tail fiber; His-tagged gpJ713; source: E. coli BL21 (DE3), purified (nickel gravity column, gel filtration); not shown: 6xHis, N-terminal, kept) APAAPSRIELTPGYFQITATPHLAVYDPTVQFEFWFSEKQIADIRQVETSTRYLGTALYWIAASINIKPGHDYYFYIRSVNTVGKSAFVEAVGRASDDAEGYLDFFKGKITESHLGKELLEKVELTEDNASRLEEFSKEWKDASDKWNAMWAVKIEQTKDGKHYVAGIGLSMEDTEEGKLSQFLVAANRIAFIDPANGNETPMFVAQGNQIFMNDVFLKRLTAPTITSGGNPPAFSLTPDGKLTAKNADISGSVNANSGTLSNVTIAENCTINGTLRAEKIVGDIVKAASAAFPRQRESSVDWPSGTRTVTVTDDHPFDRQIVVLPLTFRGSKRTVSGRTTYSMCYLKVLMNGAVIYDGAANEAVQVFSRIVDMPAGRGNVILTFTLTSTRHSADIPPYTFASDVQVMVIKKQALGISVV |  |  | stoichiometry N [2]: 3; Kd (E. coli LamB): 1.76 nM; binding result (E. coli LamB A384S): binds |
| gpM (bacteriophage lambda tail protein, in the purified tail) (natural protein, Tail protein gpM of bacteriophage lambda; also called gpM ring; gpM hexamer; source: E. coli BL21 (DE3) pLysS, as part of the purified lambda tail) MKTFRWKVKPGMDVASVPSVRKVRFGDGYSQRAPAGLNANLKTYSVTLSVPREEATVLESFLEEHGGWKSFLWTPPYEWRQIKVTCAKWSSRVSMLRVEFSAEFEQVVN | 6 | binds | binding result [4]: binds |
| B1 |  | binds |  |
| gpI (bacteriophage lambda, in the purified tail) (natural protein, gpI of bacteriophage lambda: unresolved N-terminal domain, helices H1 and H2, plug domain (159-175), beta-strands joined by loops; in the open structure only residues from 167 onward are seen; Three units in the tail tip; source: E. coli BL21 (DE3) pLysS, as part of the purified lambda tail) MAATHTLPLASPGMARICLYGDLQRFGRRIDLRVKTGAEAIRALATQLPAFRQKLSDGWYQVRIAGRDVSTSGLTAQLHETLPDGAVIHIVPRVAGAKSGGVFQIVLGAAAIAGSFFTAGATLAAWGAAIGAGGMTGILFSLGASMVLGGVAQMLAPKARTPRIQTTDNGKQNTYFSSLDNMVAQGNVLPVLYGEMRVGSRVVSQEISTADEGDGGQVVVIGR |  | binds |  |
| B2 | 3 |  |  |

Reference: publication PMC11101478, “Structural mechanism of bacteriophage lambda tail’s interaction with the bacterial receptor” (Nature Communications, 2024)
